The labels stand for the following.
B1: Rubisco Activase derived polypeptide 183H12 (protein)
chain: MVKEDKQTDGDRWRGLAYDTSDDQQDITRGKGMVDSVFQAPMGTGTHHAVLSSYEYVSQGLRQYNLDNMMDGFYIAPAFMDKLVVHITKNFLTLPNIKVPLILGIWGGKGQGKSFQCELVMAKMGINPIMMSAGELESGNAGEPAKLIRQRYREAADLIKKGKMCCLFINDLDAGAGRMGGTTQYTVNNQMVNATLMNIADNPTNVQLPGMYNKEENARVPIICTGNDFSTLYAPLIRDGRMEKFYWAPTREDRIGVCKGIFRTDKIKDEDIVRLVDQFPGQSIDFFGALRARVYDDEVRKFVESLGVEKIGKRLVNSREGPPVFEQPEMTYEKLMEYGNMLVMEQENVKRVQLAETYLSQAALGDANADAIGRGTFYGKTEEKEPSKLE
B2: Rubisco Activase derived polypeptide 301H3 (protein)
chain: B1 chain with V257I, K310N
B3: Rubisco Activase derived polypeptide 382D8 (protein)
chain: B1 chain with M131V, V257I, R274T, K310N
B4: wild type Rubisco Activase (Arabidopsis, short form RCA1) (protein)
chain: B1 chain with R274T
B5: Rubisco Activase derived polypeptide 214A4 (protein)
chain: B1 chain with M42T
B6: Rubisco Activase derived polypeptide 079H6 (protein)
chain: B1 chain with M42T, M131I, R274T, R293K
B7: Rubisco Activase derived polypeptide 182B11 (protein)
chain: B1 chain with M131I, R274T
B8: Rubisco Activase derived polypeptide 126H4 (protein)
chain: B1 chain with M130R, R274T
B9: Rubisco Activase derived polypeptide 301C7 (protein)
chain: B1 chain with F168L, V257I, R274T, K310N
B10: Rubisco Activase derived polypeptide 184B2 (protein)
chain: B1 chain with R274T, K310N
B11: Rubisco Activase derived polypeptide 383A12 (protein)
chain: B1 chain with F168L, V257I, K310N

The source of these data is patent US20080072349.

Numbering of substitutions follows the chain as printed.

For the data set, the target named is purified deactivated Arabidopsis Rubisco (Ribulose-1,5-bisphosphate carboxylase/oxygenase), O03042.
As for B1, the Activation of deactivated Rubisco assay, 25° C., relative activity (%) is 109%; the Activity (3rd tier) 25° C. (µmol CO2 min^-1 mg^-1) is 1.05; the Activity (3rd tier) 40° C. (µmol CO2 min^-1 mg^-1) was 0.857; the Rubisco activation under catalytic conditions assay, 25° C., relative activity (%) turned out to be 118%. Besides, the “specific activity, Rubisco activation under catalytic conditions” value was “The protein displaying the highest specific activity at either 25 °C or 40 °C was the best variant isolated in the first round, 183H12”.
Take B2: the Activation of deactivated Rubisco assay, 25° C., relative activity (%) turned out to be 101%; the Activity (3rd tier) 25° C. (µmol CO2 min^-1 mg^-1) worked out at 0.971; the Activity (3rd tier) 40° C. (µmol CO2 min^-1 mg^-1) came to 0.86; the Rubisco activation under catalytic conditions assay, 25° C., relative activity (%) stood at 92%.
With B3, the Activation of deactivated Rubisco assay, 25° C., relative activity (%) was 105%; the Activity (3rd tier) 25° C. (µmol CO2 min^-1 mg^-1) is 1.01; the Activity (3rd tier) 40° C. (µmol CO2 min^-1 mg^-1) was found to be 0.91; the Rubisco activation under catalytic conditions assay, 25° C., relative activity (%) turned out to be 98%.
In the same order, the values of B4 are 100%, 0.96, 0.634 and 100%.
For the protein B5, the Activation of deactivated Rubisco assay, 25° C., relative activity (%) was 111%; the Activity (3rd tier) 25° C. (µmol CO2 min^-1 mg^-1) is 1.07; the Activity (3rd tier) 40° C. (µmol CO2 min^-1 mg^-1) amounted to 0.986; the Rubisco activation under catalytic conditions assay, 25° C., relative activity (%) was 101%.
Consider B6, for which the Activation of deactivated Rubisco assay, 25° C., relative activity (%) is 111%; the Activity (3rd tier) 25° C. (µmol CO2 min^-1 mg^-1) worked out at 1.06; the Activity (3rd tier) 40° C. (µmol CO2 min^-1 mg^-1) came out at 0.94; the Rubisco activation under catalytic conditions assay, 25° C., relative activity (%) was determined as 105%.
As for B7, the Activity (3rd tier) 25° C. (µmol CO2 min^-1 mg^-1) amounted to 0.426 and the Activity (3rd tier) 40° C. (µmol CO2 min^-1 mg^-1) was 0.359.
In the same order, the values of B8 are 0.616 and 0.596.
For the protein B9, the Activation of deactivated Rubisco assay, 25° C., relative activity (%) worked out at 94%; the Activity (3rd tier) 25° C. (µmol CO2 min^-1 mg^-1) is 0.905; the Activity (3rd tier) 40° C. (µmol CO2 min^-1 mg^-1) came out at 0.889; the Rubisco activation under catalytic conditions assay, 25° C., relative activity (%) was found to be 96%.
Protein B10 showed an Activity (3rd tier) 25° C. (µmol CO2 min^-1 mg^-1) of 1.05 and an Activity (3rd tier) 40° C. (µmol CO2 min^-1 mg^-1) of 0.889.
For the protein B11, the Activation of deactivated Rubisco assay, 25° C., relative activity (%) was 93%; the Activity (3rd tier) 25° C. (µmol CO2 min^-1 mg^-1) was found to be 0.891; the Activity (3rd tier) 40° C. (µmol CO2 min^-1 mg^-1) is 0.92; the Rubisco activation under catalytic conditions assay, 25° C., relative activity (%) was 96%.
